Laboratory results from CN117820479A (BEILAI PHARMACEUTICAL CO LTD, dated 2024).

What was measured:
[1] = target: IL-17RA and IL-17RC co-expressed on 293F-IL-17RA-IL-17Rc-ACT1-NFκB-Luc reporter cells (UniProt Q96F46); test: FACS on cells overexpressing IL-17RA and IL-17RC
Biotin-IL-17A-His = target: T1, Biotin-IL-17A-His (UniProt Q16552 24-155, biotinylated (Biotin-IL-17A-His; site not stated)); test: ELISA: antibody coated at 2 ug/mL, Biotin-IL-17A-His titrated from 10 ug/mL in 5-fold steps (7 points), HRP-streptavidin, OD450
T1 construct: also called 靶蛋白; not shown: His tag

[2] = target: IL-17A重组蛋白 (Human IL-17A重组蛋白, C端6×His标签) (human, UniProt Q16552 24-155, limits assumed); test: cell-based or functional assay
IL-17A重组蛋白 (Human IL-17A重组蛋白, C端6×His标签) (human, UniProt Q16552 24-155, limits assumed), sequence (Q16552 other isoform, or with tags, fused parts or gaps limits assumed): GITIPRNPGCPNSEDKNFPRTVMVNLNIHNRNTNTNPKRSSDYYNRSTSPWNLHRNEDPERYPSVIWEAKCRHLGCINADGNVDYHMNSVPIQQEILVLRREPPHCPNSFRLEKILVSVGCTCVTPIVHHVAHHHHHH

T1 sequence (Q16552 24-155 limits assumed): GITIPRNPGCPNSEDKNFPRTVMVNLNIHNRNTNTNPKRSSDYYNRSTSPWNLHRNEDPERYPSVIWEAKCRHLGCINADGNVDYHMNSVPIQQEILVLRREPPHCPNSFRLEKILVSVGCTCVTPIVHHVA

| Molecule | 阳性率 [1] [%] | EC50 (Biotin-IL-17A-His) [µg/mL] | IC50, 阻断Human IL-17A蛋白激活293F-IL-17RA-IL-17Rc-ACT1-NFκB-Luc (luciferase reporter) [2] [µg/mL] |
| --- | --- | --- | --- |
| IL-17A重组蛋白 (Human IL-17A重组蛋白, C端6×His标签) (from UniProt Q16552 24-155) (ligand) | > 90 | – | – |
| 串联抗体G12-1-F8 (IL-17A特异性串联抗体) (Fc fusion) EVQLVESGGGLVQPGGSLRLSCVAWGFSFSIYSVNWYRQAPGKERELVAGITKGGLKDYADSVKGRFTISRDNAKNAVYLRMNMLKPEDTAVYYCNAGRENGYWGQGTQVAVSTGGGGSGGGGSGGGGSEVQLVESGGGLVQPGGSLRLSCAASGFSIHIYAMGWYRQAPGKQRELVATITRGGVTNNADSVKGRFTISRDNAKNTAYLQMNSLKPEDTAVYYCNAGGTNGGYWGQGTQVTVSS | – | 2.42 | 0.759 |
| Ixekizumab (阳性对照抗体) (antibody, human IgG4 S228P, kappa, V domains shown, Made in house from the variable regions cloned into pcDNA3.4-hIgG4 and pcDNA3.4-hIgKc vectors; also called 对照抗体Ixekizumab; 阳性抗体) VH: QVQLVQSGAEVKKPGSSVKVSCKASGYSFTDYHIHWVRQAPGQGLEWMGVINPMYGTTDYNQRFKGRVTITADESTSTAYMELSSLRSEDTAVYYCARYDYFTGTGVYWGQGTLVTVSS VL: DIVMTQTPLSLSVTPGQPASISCRSSRSLVHSRGNTYLHWYLQKPGQSPQLLIYKVSNRFIGVPDRFSGSGSGTDFTLKISRVEAEDVGVYYCSQSTHLPFTFGQGTKLEIKR | – | 10.1 | 1.36 |
